From article PMC6491548, “A novel multidomain acyl-CoA carboxylase in Saccharopolyspora erythraea provides malonyl-CoA for de novo fatty acid biosynthesis” (Scientific Reports, 2019)

Columns and labels:
purified protein [1] = substrate: CC(=O)SCCNC(=O)CCNC(=O)[C@H](O)C(C)(C)COP(=O)(O)OP(=O)(O)OC[C@H]1O[C@@H](n2cnc3c(N)ncnc32)[C@H](O)[C@@H]1OP(=O)(O)O; assay: purified protein; assay type: biochemical, Saccharopolyspora erythraea; conditions: 3 mM ATP, 5 mM MgCl2, 50 mM NaH14CO3, 100 mM Hepes pH 7.5, 30 °C
purified protein [2] = substrate: CCC(=O)SCCNC(=O)CCNC(=O)[C@H](O)C(C)(C)COP(=O)(O)OP(=O)(O)OC[C@H]1O[C@@H](n2cnc3c(N)ncnc32)[C@H](O)[C@@H]1OP(=O)(O)O; assay: purified protein; assay type: biochemical, Saccharopolyspora erythraea; conditions: 3 mM ATP, 5 mM MgCl2, 50 mM NaH14CO3, 100 mM Hepes pH 7.5, 30 °C
[3] = biological target: the molecule itself; assay: SEC; Superdex 200 10/300 GL in 50 mM Hepes pH 7.5, 150 mM NaCl, 20% glycerol; calibrated with molecular mass standards; two peaks, dimer (404 kDa) and monomer (186.9 kDa)

Protein | Km (purified protein [1]) [mM] | Vmax (purified protein [1]) [µmol/min] | kcat (purified protein [1]) [s⁻¹] | kcat/Km (purified protein [1]) [M⁻¹ s⁻¹] | Km (purified protein [2]) [mM] | Vmax (purified protein [2]) [µmol/min] | kcat (purified protein [2]) [s⁻¹] | kcat/Km (purified protein [2]) [M⁻¹ s⁻¹] | stoichiometry N [3]
SACE_4237 (Saccharopolyspora erythraea NRRL 2338) (protein, full-length gene, N-terminal His6 tag, E. coli BL21λ(DE3) with pCY216 (biotin ligase)) MFSRVAIVNRGEAAMRLVHAVRELAAETGERIETVALHTDVDRTATFVREADLRYDLGPASARPYLDLGVLERALVESGADAAWVGWGFVAEDPAFAELCEKIGVTFIGPSAEAMRRLGDKIGAKLLAEEVGVPVAPWSRGEVSDLDGARRAADEIGYPLMLKATAGGGGRGIRVINSEQELTEAYERTRMEAERAFGNGAVFLERLVTGARHVEVQVIADGQGTAWALGVRDCSVQRRNQKIIEESASPVLTAEQSRELKAAAERLARAVEYRGAGTVEFLYHPGEELFAFLEVNTRLQVEHPITEATTGVDLVKAQLHVASGGRLEGEPPAELGHAVEARLNAEDPDRDFAPSPGRIVRLSLPAGPGIRVDTGVSEGDTIPADFDSMIAKIIAYGSDREQALGRLRRAMAQTTVIVAGGATNKSFVLDLLNRDEVVDGSADTGWIDRERAAGGLRSHQHSAIALAAAAVEAYEDAELAARQQFLSTAHGGRPQVRHETGRPLELKLRDESYRVLVARVGHQRYRIGIDTGSQQHTADVEIERFDSHTGQITVNGQRFRLVTDTHGPVHLVEVDGVTHRVSQDEGGVLRSPAPALVVATPVEIGEEVEAGAPVLVLESMKMETVLRAPFRARLRERMVAAGSQIETGAPLLRLEPVGDQEAAEEAEAATPVELALPVAPSARDAHERAARGLQDLRSVLLGFDVDPHDEQRVLDDYLAARAELVAAGQRPLDGEIELLQVFADLSELSRNRPAGEEAKADTRVHSPREYFHTYLQSLDVERAGLSETFQQRLLRVLGHYGVEGADRTPELEEAVFRIFLAQQRAASDAAVVTTLLGHWLTEVPPPGETRTAAGLVLEHLVAATQLRFPVVCDLARTVVFHWFAQPMLRRNRAEVYSVVRGHLRHLDAHPDAHDRAERIAEMVGTAEPLVRLLGQRIGREGTDPAPLLEVLTRRYYGNRALDGVRTTRVAGSTAVVAEYQDEHPRVVATAVDFAALPEAVRAIGELAADGDLVADIYLTWADQPEDSDAMAAELGEVLGAQGLPGQVGRITTTVAGRSGAVMHHHFTFEPASEGVAEQRLIRGLHPLIAERLQLRRWRDFDLTRLPSADEEVYLFRSVARENPSDERFVAMAQVRDLTPLRDDEGRLVALPAAEGVLTGCLDAIRKVQARVPARQRSSTNRIVIYVWPPVELTSEELRALGRRVLPTTAGAGLEEVLFLGRRRDRETGELREVAVRVGYEAGSEPRMSVGEPPTERIEPLNSYRQKVLRAAKRGTVYPYELTGMLAGGQGTFVEHDLDADGVLVPVDRPKGQNSAAIVAGVVTTPTERHPEGVTRVVLLGDPTKSLGALSEPECSRVIAALDLAERMRVPLEWFALSAGARISMDSGTENMDWVAAALKRIVHFTQDGGEINVVVAGINVGAQPYWNAEATMLMHTKGILVMTPDSAMVLTGKQSLDFSGGVSADDNFGIGGYDRVMGPNGQAQYWAPNLAAAREVLMSHYDHTYVVPGEEAPRQAATTDPRDRDICDYPHEFAGSDFTTVGEIFSATANPDRKKSFDIRTVMRALADQDHPVLERWAGMADADTAAVQDVHLGGHPVCLLGIESRPVPRHGFPPTDGPDTYTAGTLFPRSSKKAARAINAASGNRPLVVLANLSGFDGSPESMRKLQLEYGAEIGRAIVNFRGPIVFCVISRYHGGAFVVFSKALNPNMTVLAVEGSYASVIGGAPAAAVVFSGEVNDRTAKDQRVRDLEARLAEAGDADRTALTLELAETRRAVHAEKLGEVAAEFDRVHSVQRAVEVGSVDAIVRADELRPQIIEAIEKGMLPQ | 0.168 ± 0.001 | 0.00043 | 0.143 ± 0.004 | 850 ± 30 | 0.098 ± 0.001 | 0.00016 | 0.052 ± 0.002 | 520 ± 40 | –
SACE_4237 multidomain acyl-CoA carboxylase (enzyme, Saccharopolyspora erythraea, UniProt A4FHI1 1-1827, looked up, biotinylated (co-expressed biotin ligase from pCY216 to improve biotinylation; residue not stated), SACE_4237, multidomain acyl-CoA carboxylase (BC, BCCP, central region, CT) of Saccharopolyspora erythraea NRRL23338, about 200 kDa; gene amplified from chromosomal DNA with an NdeI site at the translational start codon and a SpeI site downstream of the stop codon; Eluted from size exclusion as a dimer (peak 1, 404 kDa) and a monomer (peak 2, 186.9 kDa); The row is of the protomer with itself; …) MFSRVAIVNRGEAAMRLVHAVRELAAETGERIETVALHTDVDRTATFVREADLRYDLGPASARPYLDLGVLERALVESGADAAWVGWGFVAEDPAFAELCEKIGVTFIGPSAEAMRRLGDKIGAKLLAEEVGVPVAPWSRGEVSDLDGARRAADEIGYPLMLKATAGGGGRGIRVINSEQELTEAYERTRMEAERAFGNGAVFLERLVTGARHVEVQVIADGQGTAWALGVRDCSVQRRNQKIIEESASPVLTAEQSRELKAAAERLARAVEYRGAGTVEFLYHPGEELFAFLEVNTRLQVEHPITEATTGVDLVKAQLHVASGGRLEGEPPAELGHAVEARLNAEDPDRDFAPSPGRIVRLSLPAGPGIRVDTGVSEGDTIPADFDSMIAKIIAYGSDREQALGRLRRAMAQTTVIVAGGATNKSFVLDLLNRDEVVDGSADTGWIDRERAAGGLRSHQHSAIALAAAAVEAYEDAELAARQQFLSTAHGGRPQVRHETGRPLELKLRDESYRVLVARVGHQRYRIGIDTGSQQHTADVEIERFDSHTGQITVNGQRFRLVTDTHGPVHLVEVDGVTHRVSQDEGGVLRSPAPALVVATPVEIGEEVEAGAPVLVLESMKMETVLRAPFRARLRERMVAAGSQIETGAPLLRLEPVGDQEAAEEAEAATPVELALPVAPSARDAHERAARGLQDLRSVLLGFDVDPHDEQRVLDDYLAARAELVAAGQRPLDGEIELLQVFADLSELSRNRPAGEEAKADTRVHSPREYFHTYLQSLDVERAGLSETFQQRLLRVLGHYGVEGADRTPELEEAVFRIFLAQQRAASDAAVVTTLLGHWLTEVPPPGETRTAAGLVLEHLVAATQLRFPVVCDLARTVVFHWFAQPMLRRNRAEVYSVVRGHLRHLDAHPDAHDRAERIAEMVGTAEPLVRLLGQRIGREGTDPAPLLEVLTRRYYGNRALDGVRTTRVAGSTAVVAEYQDEHPRVVATAVDFAALPEAVRAIGELAADGDLVADIYLTWADQPEDSDAMAAELGEVLGAQGLPGQVGRITTTVAGRSGAVMHHHFTFEPASEGVAEQRLIRGLHPLIAERLQLRRWRDFDLTRLPSADEEVYLFRSVARENPSDERFVAMAQVRDLTPLRDDEGRLVALPAAEGVLTGCLDAIRKVQARVPARQRSSTNRIVIYVWPPVELTSEELRALGRRVLPTTAGAGLEEVLFLGRRRDRETGELREVAVRVGYEAGSEPRMSVGEPPTERIEPLNSYRQKVLRAAKRGTVYPYELTGMLAGGQGTFVEHDLDADGVLVPVDRPKGQNSAAIVAGVVTTPTERHPEGVTRVVLLGDPTKSLGALSEPECSRVIAALDLAERMRVPLEWFALSAGARISMDSGTENMDWVAAALKRIVHFTQDGGEINVVVAGINVGAQPYWNAEATMLMHTKGILVMTPDSAMVLTGKQSLDFSGGVSADDNFGIGGYDRVMGPNGQAQYWAPNLAAAREVLMSHYDHTYVVPGEEAPRQAATTDPRDRDICDYPHEFAGSDFTTVGEIFSATANPDRKKSFDIRTVMRALADQDHPVLERWAGMADADTAAVQDVHLGGHPVCLLGIESRPVPRHGFPPTDGPDTYTAGTLFPRSSKKAARAINAASGNRPLVVLANLSGFDGSPESMRKLQLEYGAEIGRAIVNFRGPIVFCVISRYHGGAFVVFSKALNPNMTVLAVEGSYASVIGGAPAAAVVFSGEVNDRTAKDQRVRDLEARLAEAGDADRTALTLELAETRRAVHAEKLGEVAAEFDRVHSVQRAVEVGSVDAIVRADELRPQIIEAIEKGMLPQ | – | – | – | – | – | – | – | – | 2
